Molecular target: acetylcholine receptor (Homo sapiens, UniProt P02708)
Assay: SPR binding affinity (RU) of optimized 5mer/6mer/7mer peptides, Examples 6-7
Details: SPR, Resonance Units; peptides tested at 10 μM; 6mer-2 Top sequence
Summary of the method: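 600 peptides per series (5mer, 6mer-1, 6mer-2), made from high- or low-frequency amino acid combinations, are screened by SPR at 10 μM; binding is recorded in RU.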

Sequence of acetylcholine receptor (P02708 21-457): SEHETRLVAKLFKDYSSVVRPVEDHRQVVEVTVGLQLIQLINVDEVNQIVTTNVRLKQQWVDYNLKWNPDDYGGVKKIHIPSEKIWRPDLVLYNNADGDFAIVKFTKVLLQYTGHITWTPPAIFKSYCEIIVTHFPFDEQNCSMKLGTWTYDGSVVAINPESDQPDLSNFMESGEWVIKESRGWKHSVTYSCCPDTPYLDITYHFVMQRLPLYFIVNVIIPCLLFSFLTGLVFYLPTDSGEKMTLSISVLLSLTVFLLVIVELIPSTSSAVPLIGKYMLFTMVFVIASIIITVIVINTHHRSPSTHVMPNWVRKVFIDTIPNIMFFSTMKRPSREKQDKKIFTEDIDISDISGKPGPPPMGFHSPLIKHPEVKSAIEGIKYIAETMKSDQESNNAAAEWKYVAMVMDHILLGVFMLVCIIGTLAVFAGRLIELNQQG

Substance	Binding affinity [Ru]
6mer-2-430 (RWFRRR)	139
6mer-2-431 (KLILKR)	135
6mer-2-432 (KVVRKR)	148
6mer-2-433 (RWIQKR)	139
6mer-2-434 (RVIRRK)	154
6mer-2-435 (RWVYKR)	154
6mer-2-436 (KVLYKR)	148
6mer-2-437 (KQVCKK)	121
6mer-2-438 (RLLCRK)	131
6mer-2-439 (KWFSKR)	153
6mer-2-440 (KQLSKK)	153
6mer-2-441 (KSQRKR)	139
6mer-2-442 (RLVQKR)	139
6mer-2-443 (RQYCRR)	122
6mer-2-444 (RQRLKK)	141
6mer-2-445 (RLVCKR)	145
6mer-2-446 (RQLQKK)	153
6mer-2-447 (RVYTKK)	139
6mer-2-448 (RSFRRR)	128
6mer-2-449 (RGRCRR)	154
6mer-2-450 (RQRYRK)	123
6mer-2-451 (RGRCKK)	148
6mer-2-452 (KGLYKR)	146

Substance	Binding affinity [Ru]
6mer-2-453 (RLVRKK)	141
6mer-2-454 (RSVQKK)	133
6mer-2-455 (RWYSKR)	135
6mer-2-456 (KSVTKR)	147
6mer-2-457 (RRVYKR)	146
6mer-2-458 (RRFQRR)	122
6mer-2-459 (KLFSRK)	139
6mer-2-460 (RSQCRK)	139
6mer-2-461 (KSVCRR)	149
6mer-2-462 (KQICKR)	145
6mer-2-463 (KLLTRR)	124
6mer-2-464 (KSFRKK)	135
6mer-2-465 (KGVSKR)	122
6mer-2-466 (RLLTRR)	142
6mer-2-467 (KQYSRR)	142
6mer-2-468 (RSFSKR)	133
6mer-2-469 (RLRTKK)	153
6mer-2-470 (RLRRRK)	153
6mer-2-471 (KWISRR)	136
6mer-2-472 (RSRLRR)	148
6mer-2-473 (RGRLRK)	131
6mer-2-474 (RWQQRR)	128
6mer-2-475 (KRFCRR)	139

Substance	Binding affinity [Ru]
6mer-2-476 (KGIRKK)	148
6mer-2-477 (RSRTRR)	135
6mer-2-478 (KWYTRK)	145
6mer-2-479 (KWRLKK)	154
6mer-2-480 (RRFTKK)	147
6mer-2-481 (RQRYKK)	131
6mer-2-482 (KGQTRR)	154
6mer-2-483 (RRYLKK)	121
6mer-2-484 (RWYTKR)	148
6mer-2-485 (RQIQKR)	148
6mer-2-486 (KQQSKK)	121
6mer-2-487 (KSYTKR)	121
6mer-2-488 (KVYRRK)	146
6mer-2-489 (RVISKK)	142
6mer-2-490 (RRYQKK)	145
6mer-2-491 (KRICKR)	135
6mer-2-492 (RLIQKK)	148
6mer-2-493 (KGVRRK)	123
6mer-2-494 (KGLLRR)	144
6mer-2-495 (KLLCKK)	121
6mer-2-496 (RVRYRK)	144
6mer-2-497 (KSYTRR)	148
6mer-2-498 (KGLCRR)	127

Substance	Binding affinity [Ru]
6mer-2-499 (RLFTKR)	145
6mer-2-500 (KRICRR)	146
6mer-2-501 (KSYSKK)	144
6mer-2-502 (KSFCKR)	144
6mer-2-503 (KVQTKK)	154
6mer-2-504 (RGLTRK)	154
6mer-2-505 (KRQCKK)	148
6mer-2-506 (KSLLKK)	135
6mer-2-507 (RGICKR)	145
6mer-2-508 (RVFLKK)	121
6mer-2-509 (RGFYRK)	136
6mer-2-510 (KRVLKK)	146
6mer-2-511 (RVFCRR)	126
6mer-2-512 (RWFTRR)	148
6mer-2-513 (RRLTRK)	121
6mer-2-514 (KGLQKK)	124
6mer-2-515 (RWYCRK)	123
6mer-2-516 (RQQQKK)	146
6mer-2-517 (KLRTKK)	153
6mer-2-518 (KLVTKK)	151
6mer-2-519 (KQIQRR)	135
6mer-2-520 (KSYCKR)	144
6mer-2-521 (KQYTRK)	144

Substance	Binding affinity [Ru]
6mer-2-522 (RVVLRK)	124
6mer-2-523 (RGRYKR)	146
6mer-2-524 (RGIQKR)	128
6mer-2-525 (KWVRKK)	145
6mer-2-526 (RVLLRK)	144
6mer-2-527 (RGQTRR)	145
6mer-2-528 (KGFRKK)	151
6mer-2-529 (KQQRKR)	124
6mer-2-530 (RSYSKR)	139
6mer-2-531 (KVIYKR)	148
6mer-2-532 (KSITKR)	147
6mer-2-533 (KRLLKR)	142
6mer-2-534 (RVQLRR)	139
6mer-2-535 (KLFCRR)	133
6mer-2-536 (RWQRKK)	125
6mer-2-537 (KVLCKR)	153
6mer-2-538 (KQFCKK)	125
6mer-2-539 (KWYTKK)	127
6mer-2-540 (KRLTRR)	142
6mer-2-541 (KGQCRK)	126
6mer-2-542 (RQIYRR)	148
6mer-2-543 (RRQYRR)	144
6mer-2-544 (KVIQKR)	147

Substance	Binding affinity [Ru]
6mer-2-545 (KLYCRK)	125
6mer-2-546 (RVFTKK)	127
6mer-2-547 (RWQCKR)	135
6mer-2-548 (RLQCRR)	142
6mer-2-549 (KQLCKK)	142
6mer-2-550 (RSFTKK)	148
6mer-2-551 (KWYTKR)	141
6mer-2-552 (RGLLRR)	148
6mer-2-553 (RSLQKK)	124
6mer-2-554 (RWRCRR)	121
6mer-2-555 (RSVSKK)	154
6mer-2-556 (RSICKK)	148
6mer-2-557 (KWVLRK)	123
6mer-2-558 (KSVCKK)	154
6mer-2-559 (KGQLRR)	121
6mer-2-560 (RQYTRR)	153
6mer-2-561 (RRVLKK)	142
6mer-2-562 (RQQRKR)	136
6mer-2-563 (KGYQKR)	131
6mer-2-564 (KQVYRK)	148
6mer-2-565 (KSRRRR)	147
6mer-2-566 (KRLSKK)	139
6mer-2-567 (KLYYRK)	146

Substance	Binding affinity [Ru]
6mer-2-568 (KGFQKK)	142
6mer-2-569 (RWQLRK)	135
6mer-2-570 (RVYYKR)	148
6mer-2-571 (RGYQRR)	135
6mer-2-572 (KSQRRK)	148
6mer-2-573 (KLYLRR)	121
6mer-2-574 (KGVYRK)	153
6mer-2-575 (RGYSRK)	139
6mer-2-576 (KGVSRR)	139
6mer-2-577 (KRVQRR)	139
6mer-2-578 (RSVLRK)	135
6mer-2-579 (RWQYRK)	135
6mer-2-580 (KWQQRR)	121
6mer-2-581 (RVQQKR)	139
6mer-2-582 (RWQTRK)	148
6mer-2-583 (KSVTKK)	154
6mer-2-584 (KRLTRK)	148
6mer-2-585 (RSFRRK)	136
6mer-2-586 (RWLSRK)	121
6mer-2-587 (KRISKR)	148
6mer-2-588 (KWFYKK)	149
6mer-2-589 (RWQQRK)	153

From patent US20250011363A1, “OPTIMIZED SHORTENED PEPTIDE THAT BINDS TO ACETYLCHOLINE RECEPTOR, AND USE THEREOF” (SKINMED CO., LTD., priority 2021, published 2025)
